# Test results published in the DeepSol protein solubility set.
# Assay: soluble on expression in E. coli; label from the status in PepcDB or PDB records
row,Sequence,soluble on expression in E. coli
1,MPDKKREVSLSHRLQEVASFVPKGARLLDVGSDHAYLPIYLLEQGLIDFAVAGEIIKGPYESAVANVSESELSGQIAVRLADGLAALNDNDDIDLITICGMGGRLIADILAAGSDKLNSVKQLILQPNNCEDDLRSWLVANDFMIKAEKMVKDRHKYYEILVVEKGKITLSDKDLRFGPFLRQERSSIFKERWRKELAKLELALTKVPAKKKADNMFLSTKIEQIKEVLYES,not soluble
2,MPDTSFSNPGLFTPLQLGSLSLPNRVIMAPLTRSRTPDSVPGRLQQIYYGQRASAGLIISEATNISPTARGYVYTPGIWTDAQEAGWKGVVEAVHAKGGRIALQLWHVGRVSHELVQPDGQQPVAPSALKAEGAECFVEFEDGTAGLHPTSTPRALETDEIPGIVEDYRQAAQRAKRAGFDMVEVHAANACLPNQFLATGTNRRTDQYGGSIENRARFPLEVVDAVAEVFGPERVGIRLTPFLELFGLTDDEPEAMAFYLAGELDRRGLAYLHFNEPDWIGGDITYPEGFREQMRQRFKGGLIYCGNYDAGRAQARLDDNTADAVAFGRPFIANPDLPERFRLGAALNEPDPSTFYGGAEVGYTDYPFLDNGHDRLG,soluble
3,MPEEIATLAGGCFWCTEAAFKLLRGVLEVVPGYAGGHVPHPTYEEVCTGTTGHREAVQVRFDPGVLPYADLLRYFFAVHDPTSEDRQGPDVGPQYSPAIFYHSEEQKRVAEAVMRELAPLYPKPIATKLLPFTTFYPAEAYHRDYFARHPEAPYCRFVIAPKLEKARKAFKSLLRP,soluble
4,MPELPEVETVRRELEKRIVGQKIISIEATYPRMVLTGFEQLKKELTGKTIQGISRRGKYLIFEIGDDFRLISHLRMEGKYRLATLDAPREKHDHLTMKFADGQLIYADVRKFGTWELISTDQVLPYFLKKKIGPEPTYEDFDEKLFREKLRKSTKKIKPYLLEQTLVAGLGNIYVDEVLWLAKIHPEKETNQLIESSIHLLHDSIIEILQKAIKLGGSSIRTYSALGSTGKMQNELQVYGKTGEKCSRCGAEIQKIKVAGRGTHFCPVCQQK,soluble
5,MPENSQPTTTEKGSEYLEQLANEAEELRKKLDQERHKLNDIPIQQAAERLDVMGALGVKQRRILKGHVGKVLCMDWSLDKRHIVSSSQDGKVIVWDGFTTNKEHALTMPTTWVMACAFSPSSQMIACGGLDNKCSVVPLSFEDDIIQKKRQVATHTSYMSCCTFLRSDNLILTGSGDSTCAIWDVESGQLIQNFHGHTGDVFAIDVPKCDTGNTFISAGADKHSLVWDIRSGQCVQSFEGHEADINTVRFHPNGDAFATGSDDATCRLFDLRADRQVCVYEKESILFPVNGVDFSLSGRILFAGYGDYRVGVWDSLKCARHSVLYGHENRISCLRTSPDGTAVCSASWDCTIRIWA,not soluble
6,MPERLSRMSKKHKMVWGTLNGLDDWDYNVFELQAAIDGDDINCKNDQSGCGALFITMYALVVKYGFLRKFEINERIFLNWLSAVEGGYHANPYHNSMHAADVLHITHYLLSKGGLAELCKLNDRQVLAALFAAAIHDYNHPGINNNFSILTQTYNATLYNDRSVLENMHVASVFELMRNPALNILACFSEEHWRDFRNTVIDMVLATDMSLHEKYMTQFKRRLSEKRPFTEDCDQNLALAMALKLADISNCCRPLPLYLKWSERVSDEFYTQGDRERSLGMSCSPFMDRQTPMIAEGQTSFINYIFIPFLEVMAEFLPSMGFTLGLAAVCKSHRLVG,soluble
7,MPEYSSVTGLEGVKFAPLKKENGFYVATKIIDYPYAINAKVNTETSTEKQYADNKLVDMAVTTGSTKLELEMRDLPMEILEELFGIEETDGIYMFKKNVIAPWVAMSFYGPKANGKNRHVGLVKGRFSLPDDEWKTKEEKTDFQTVKLSAEFMEREQDNAYKVLADEDAPNFNLDKFYEKVFGNAYKNPDSGSDNKSSVDIGKTVLEHHHHHH,soluble
8,MPFHYPKLYMDHRGNMSTSSSLTSSTTATSSSSTGGVRKQILTLKPKQPNGYVQHLEIKAKESSQSSVISGGVPVPVTLLELKKKDRSEKNVVTNLKYRKPTANHHLDSVHSSSEHHHHHHLSLSSLTRRPGSPSSSGYETDSLVDQENCDVFSSLFNSSLSYQSALDHHHQFHELDMLHSHPIWSPQLPNNNTSLMMGSNSYYLQ,not soluble
